Reference: article PMC6176576

Target: mtPaf1 (subunit of the four-subunit mtPaf1 complex) (Myceliophthora thermophila)
Assay: co-purification, SDS/PAGE

| Substance | stoichiometry N |
| --- | --- |
| mtCdc73 (subunit of the four-subunit mtPaf1 complex) (natural protein) | 1 |
| mtLeo1 (subunit of the four-subunit mtPaf1 complex) (natural protein) | 1 |
